Results taken from the supplement of paper PMC10065799, “High-throughput profiling of sequence recognition by tyrosine kinases and SH2 domains using bacterial peptide display” (eLife, 2023).

Columns and labels:
[1] = system: AncSZ; experiment: phosphorylation enrichment, bacterial display (enrichment ratio); higher = better substrate or ligand; peptides without Tyr show the background
[2] = target: EPHB1 (UniProt P54762); experiment: as above
[3] = target: EPHB2 (UniProt P29323); experiment: as above
[4] = target: FGFR1 (UniProt P11362); experiment: as above
[5] = target: FGFR3 (UniProt P22607); experiment: as above
[6] = system: Fer (mouse); experiment: as above
[7] = target: Fes (UniProt P07332); experiment: as above
[8] = target: Fyn (UniProt P06241); experiment: as above
[9] = target: Hck (UniProt P08631); experiment: as above
[10] = target: Jak2 (UniProt O60674); experiment: as above
[11] = target: MERTK (UniProt Q12866); experiment: as above
[12] = system: c-Abl (mouse); experiment: as above
[13] = system: c-Src; experiment: as above
[14] = target: Grb2 SH2 (UniProt P62993); experiment: SH2 binding enrichment of the phosphorylated peptide, bacterial display (enrichment ratio); higher = better substrate or ligand; peptides without Tyr show the background
[15] = target: SHP2-C SH2; experiment: as above
[16] = target: c-Src SH2; experiment: as above
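For SH2 binding enrichment of the phosphorylated peptide, bacterial display in this document: peptide library displayed on the E. coli surface as eCPX fusions, selected cells deep-sequenced, score is each peptide's frequency after selection divided by its frequency in the input.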
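For phosphorylation enrichment, bacterial display in this document: 11-residue human phosphosite peptides and single-mutation variants displayed on the E. coli surface, counted by deep sequencing, each peptide's frequency after selection divided by its frequency in the unselected input library; frequency after pTyr selection over input frequency; kinase dosed for 20-30% of maximal phosphorylation in three min.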

Chain of Hck (P08631 whole entry, looked up): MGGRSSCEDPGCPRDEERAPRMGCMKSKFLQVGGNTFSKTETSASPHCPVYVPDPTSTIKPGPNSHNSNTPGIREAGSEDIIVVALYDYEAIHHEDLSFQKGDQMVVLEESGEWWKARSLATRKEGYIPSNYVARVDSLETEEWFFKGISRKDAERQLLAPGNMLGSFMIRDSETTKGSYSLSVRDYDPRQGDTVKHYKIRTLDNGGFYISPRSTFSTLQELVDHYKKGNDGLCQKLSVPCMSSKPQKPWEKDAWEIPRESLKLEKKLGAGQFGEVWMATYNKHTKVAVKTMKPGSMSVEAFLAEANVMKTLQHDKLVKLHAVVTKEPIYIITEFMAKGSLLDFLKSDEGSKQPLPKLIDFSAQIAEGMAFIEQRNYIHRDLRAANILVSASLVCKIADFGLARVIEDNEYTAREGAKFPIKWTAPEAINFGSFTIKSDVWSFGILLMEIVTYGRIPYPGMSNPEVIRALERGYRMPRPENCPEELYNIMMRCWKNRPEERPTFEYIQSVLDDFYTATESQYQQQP
Chain of EPHB2 (P29323 whole entry, looked up): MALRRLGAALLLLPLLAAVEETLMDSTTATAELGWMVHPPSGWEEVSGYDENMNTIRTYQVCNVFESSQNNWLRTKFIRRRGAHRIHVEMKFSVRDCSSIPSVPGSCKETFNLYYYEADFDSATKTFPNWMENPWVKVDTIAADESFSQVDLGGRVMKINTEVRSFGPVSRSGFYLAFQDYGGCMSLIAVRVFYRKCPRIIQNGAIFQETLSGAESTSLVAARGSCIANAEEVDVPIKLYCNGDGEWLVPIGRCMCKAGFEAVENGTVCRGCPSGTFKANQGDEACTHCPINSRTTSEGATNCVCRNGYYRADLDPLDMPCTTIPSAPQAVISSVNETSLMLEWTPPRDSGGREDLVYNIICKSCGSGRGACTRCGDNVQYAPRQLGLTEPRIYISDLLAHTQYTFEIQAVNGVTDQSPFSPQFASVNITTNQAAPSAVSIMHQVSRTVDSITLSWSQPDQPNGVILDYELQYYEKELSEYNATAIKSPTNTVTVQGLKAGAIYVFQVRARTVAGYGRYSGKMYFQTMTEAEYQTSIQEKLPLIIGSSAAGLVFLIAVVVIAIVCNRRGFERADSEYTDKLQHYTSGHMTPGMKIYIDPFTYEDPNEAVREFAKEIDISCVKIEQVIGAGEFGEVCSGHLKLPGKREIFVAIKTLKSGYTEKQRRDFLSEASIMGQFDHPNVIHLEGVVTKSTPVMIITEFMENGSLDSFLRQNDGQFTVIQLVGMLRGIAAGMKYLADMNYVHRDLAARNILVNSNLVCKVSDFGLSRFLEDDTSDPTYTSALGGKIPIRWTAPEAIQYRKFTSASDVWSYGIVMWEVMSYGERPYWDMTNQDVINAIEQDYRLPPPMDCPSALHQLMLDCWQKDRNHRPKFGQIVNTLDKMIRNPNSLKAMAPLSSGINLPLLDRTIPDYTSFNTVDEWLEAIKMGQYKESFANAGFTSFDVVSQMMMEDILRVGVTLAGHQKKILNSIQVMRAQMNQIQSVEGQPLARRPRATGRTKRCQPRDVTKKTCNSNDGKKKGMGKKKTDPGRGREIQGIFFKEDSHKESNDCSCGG
Chain of MERTK (Q12866 whole entry, looked up): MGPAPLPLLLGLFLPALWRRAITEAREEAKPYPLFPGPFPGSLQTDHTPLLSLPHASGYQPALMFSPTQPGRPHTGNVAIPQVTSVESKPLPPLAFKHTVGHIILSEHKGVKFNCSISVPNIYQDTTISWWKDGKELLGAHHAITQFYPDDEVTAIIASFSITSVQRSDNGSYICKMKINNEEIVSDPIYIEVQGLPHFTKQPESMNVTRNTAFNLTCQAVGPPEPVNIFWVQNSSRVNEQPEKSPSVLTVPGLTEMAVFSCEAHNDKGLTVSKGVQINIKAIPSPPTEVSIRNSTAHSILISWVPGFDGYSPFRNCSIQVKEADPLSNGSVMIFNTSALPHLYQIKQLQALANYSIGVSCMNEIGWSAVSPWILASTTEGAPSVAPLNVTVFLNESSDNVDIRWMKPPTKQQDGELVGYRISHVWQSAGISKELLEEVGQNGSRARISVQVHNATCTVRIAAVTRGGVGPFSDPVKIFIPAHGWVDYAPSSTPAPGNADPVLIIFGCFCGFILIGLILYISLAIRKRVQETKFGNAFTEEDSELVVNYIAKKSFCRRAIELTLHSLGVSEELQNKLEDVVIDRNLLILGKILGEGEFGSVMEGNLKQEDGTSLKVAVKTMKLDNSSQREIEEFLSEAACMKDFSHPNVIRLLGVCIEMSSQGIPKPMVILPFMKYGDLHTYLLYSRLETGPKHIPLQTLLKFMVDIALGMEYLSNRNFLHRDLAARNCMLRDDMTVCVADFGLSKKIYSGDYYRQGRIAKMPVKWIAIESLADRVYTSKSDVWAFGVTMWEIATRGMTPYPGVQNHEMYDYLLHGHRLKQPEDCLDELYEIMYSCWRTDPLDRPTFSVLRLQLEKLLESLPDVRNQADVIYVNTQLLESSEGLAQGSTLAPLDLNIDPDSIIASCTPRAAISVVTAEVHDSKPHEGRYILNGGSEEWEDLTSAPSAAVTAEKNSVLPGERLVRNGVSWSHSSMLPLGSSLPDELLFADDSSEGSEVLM
Chain of FGFR1 (P11362 whole entry, looked up): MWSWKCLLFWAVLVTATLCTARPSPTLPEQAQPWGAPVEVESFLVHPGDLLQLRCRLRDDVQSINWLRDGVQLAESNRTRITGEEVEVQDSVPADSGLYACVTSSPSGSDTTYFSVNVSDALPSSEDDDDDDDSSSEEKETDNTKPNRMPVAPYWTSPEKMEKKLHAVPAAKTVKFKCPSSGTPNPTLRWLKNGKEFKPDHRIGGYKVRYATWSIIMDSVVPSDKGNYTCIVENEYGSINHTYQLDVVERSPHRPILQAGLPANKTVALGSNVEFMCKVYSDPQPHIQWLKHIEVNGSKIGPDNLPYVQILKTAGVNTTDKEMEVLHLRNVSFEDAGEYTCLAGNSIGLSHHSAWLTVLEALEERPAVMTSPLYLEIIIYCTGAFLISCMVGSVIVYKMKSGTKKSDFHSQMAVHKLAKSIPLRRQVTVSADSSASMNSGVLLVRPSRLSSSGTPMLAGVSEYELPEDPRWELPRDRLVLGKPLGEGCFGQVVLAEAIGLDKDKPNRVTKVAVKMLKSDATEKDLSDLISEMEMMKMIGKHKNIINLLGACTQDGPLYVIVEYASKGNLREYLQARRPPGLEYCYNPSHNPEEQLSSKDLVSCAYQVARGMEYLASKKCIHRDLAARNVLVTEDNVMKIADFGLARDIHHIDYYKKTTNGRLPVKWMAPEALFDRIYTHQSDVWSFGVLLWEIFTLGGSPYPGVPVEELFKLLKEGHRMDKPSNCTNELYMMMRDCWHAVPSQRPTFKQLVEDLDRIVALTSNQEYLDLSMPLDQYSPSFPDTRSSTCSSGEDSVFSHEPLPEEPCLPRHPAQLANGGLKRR
Chain of FGFR3 (P22607 whole entry, looked up): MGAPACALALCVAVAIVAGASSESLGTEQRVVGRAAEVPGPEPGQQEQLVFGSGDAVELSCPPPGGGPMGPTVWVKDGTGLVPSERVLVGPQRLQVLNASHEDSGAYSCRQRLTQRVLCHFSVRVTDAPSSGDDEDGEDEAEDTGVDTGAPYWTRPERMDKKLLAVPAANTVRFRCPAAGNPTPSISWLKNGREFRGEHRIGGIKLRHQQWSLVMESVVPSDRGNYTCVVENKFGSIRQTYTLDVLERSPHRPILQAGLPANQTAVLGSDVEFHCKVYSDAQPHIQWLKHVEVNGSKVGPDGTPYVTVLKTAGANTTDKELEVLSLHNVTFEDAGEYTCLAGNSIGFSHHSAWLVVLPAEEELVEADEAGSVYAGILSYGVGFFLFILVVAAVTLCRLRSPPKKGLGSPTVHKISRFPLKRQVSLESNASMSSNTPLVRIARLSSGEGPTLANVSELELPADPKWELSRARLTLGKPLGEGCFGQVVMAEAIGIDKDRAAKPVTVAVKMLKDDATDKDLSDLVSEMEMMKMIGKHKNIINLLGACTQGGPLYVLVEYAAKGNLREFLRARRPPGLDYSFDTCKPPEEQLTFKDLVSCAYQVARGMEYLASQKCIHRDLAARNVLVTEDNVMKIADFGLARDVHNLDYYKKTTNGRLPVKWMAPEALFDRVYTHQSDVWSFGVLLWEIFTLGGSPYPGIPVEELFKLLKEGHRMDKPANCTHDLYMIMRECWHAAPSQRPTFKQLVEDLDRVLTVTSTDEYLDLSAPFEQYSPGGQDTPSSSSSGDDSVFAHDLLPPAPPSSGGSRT
Chain of Grb2 SH2 (P62993 whole entry, looked up): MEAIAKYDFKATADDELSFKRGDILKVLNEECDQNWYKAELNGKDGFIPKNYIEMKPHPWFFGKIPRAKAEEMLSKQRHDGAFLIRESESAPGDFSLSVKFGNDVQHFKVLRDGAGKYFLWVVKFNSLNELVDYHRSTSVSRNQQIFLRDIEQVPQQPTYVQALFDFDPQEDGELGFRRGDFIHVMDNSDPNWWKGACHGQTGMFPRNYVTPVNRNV
Chain of Fyn (P06241 whole entry, looked up): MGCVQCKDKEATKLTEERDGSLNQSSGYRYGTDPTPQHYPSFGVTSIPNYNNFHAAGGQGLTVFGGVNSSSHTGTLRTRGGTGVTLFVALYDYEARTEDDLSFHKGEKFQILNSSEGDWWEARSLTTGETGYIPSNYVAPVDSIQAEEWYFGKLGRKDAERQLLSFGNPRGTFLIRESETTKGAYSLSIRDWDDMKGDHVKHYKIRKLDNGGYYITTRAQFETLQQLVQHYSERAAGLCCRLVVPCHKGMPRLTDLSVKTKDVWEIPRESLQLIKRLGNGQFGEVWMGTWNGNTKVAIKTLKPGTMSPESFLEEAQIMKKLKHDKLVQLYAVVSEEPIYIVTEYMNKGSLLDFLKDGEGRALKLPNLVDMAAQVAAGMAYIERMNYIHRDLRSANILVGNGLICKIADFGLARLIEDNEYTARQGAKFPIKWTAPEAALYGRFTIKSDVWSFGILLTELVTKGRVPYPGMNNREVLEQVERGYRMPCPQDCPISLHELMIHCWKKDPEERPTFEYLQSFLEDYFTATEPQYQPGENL

| Sequence | phosphorylation enrichment [1] | phosphorylation enrichment [2] | phosphorylation enrichment [3] | phosphorylation enrichment [4] | phosphorylation enrichment [5] | phosphorylation enrichment [6] | phosphorylation enrichment [7] | phosphorylation enrichment [8] | phosphorylation enrichment [9] | phosphorylation enrichment [10] | phosphorylation enrichment [11] | phosphorylation enrichment [12] | phosphorylation enrichment [13] | SH2 binding enrichment [14] | SH2 binding enrichment [15] | SH2 binding enrichment [16] |
| --- | --- | --- | --- | --- | --- | --- | --- | --- | --- | --- | --- | --- | --- | --- | --- | --- |
| ANSSFHSTRSA [NUMA1_Y1836_Y1836H] | 0.597 | 0.436 | 0.51 | 0.551 | 0.599 | 0.425 | 1.04 | 0.555 | 0.551 | 0.552 | 0.496 | 0.616 | 0.602 | 0.749 | 0.514 | 0.528 |
| SSMNDYNPLEK [MYOC_Y479_I477N] | 0.797 | 0.422 | 0.454 | 0.456 | 0.578 | 0.397 | 0.977 | 0.4 | 0.479 | 1.07 | 0.614 | 0.625 | 0.502 | 0.848 | 0.616 | 0.645 |
| PSQRRYVFFFS [PTEN_Y174_YF] | 1.54 | 0.809 | 0.655 | 0.731 | 1.24 | 0.735 | 1.77 | 0.721 | 0.476 | 1.16 | 0.691 | 1.27 | 0.6 | 1.3 | 1.64 | 0.819 |
| CTTNHYNYMCN [TP53_Y234_I232N] | 0.725 | 0.682 | 0.483 | 0.479 | 0.526 | 0.489 | 0.712 | 0.382 | 0.415 | 0.593 | 0.398 | 0.495 | 0.373 | 0.802 | 2.42 | 11 |
| KQFWRYFPGNL [SLC25A4_Y112_A114P] | 0.904 | 0.625 | 0.521 | 0.444 | 0.676 | 0.469 | 1.02 | 0.35 | 0.524 | 0.919 | 0.402 | 0.695 | 0.496 | 1.18 | 0.863 | 0.739 |
| PLFRKYWPNHI [GREB1L_Y1560_YF] | 1.17 | 0.589 | 0.498 | 0.505 | 0.565 | 0.482 | 0.994 | 0.698 | 0.727 | 0.695 | 0.633 | 0.557 | 0.491 | 0.855 | 0.973 | 0.461 |
| LTYHMYADPNF [SOS1_Y618] | 2.15 | 4.48 | 6.29 | 4.45 | 3.01 | 1.09 | 1.88 | 6.26 | 4.13 | 2.66 | 5.2 | 7.02 | 8.75 | 0.955 | 1.28 | 6.8 |
| VVHGSYDEIEG [SEC24A_Y263_S261G] | 0.914 | 0.424 | 0.387 | 0.395 | 0.591 | 0.594 | 0.9 | 0.395 | 0.469 | 0.887 | 0.431 | 1.07 | 0.536 | 0.801 | 0.604 | 22.5 |
| SIIKDYFHRGA [GATM_Y203] | 0.579 | 0.376 | 0.438 | 0.48 | 0.455 | 0.433 | 0.679 | 0.407 | 0.43 | 0.764 | 0.397 | 0.525 | 0.477 | 0.87 | 0.607 | 0.537 |
| DTMQTYNGNDE [TSPAN7_Y131_A127T] | 0.976 | 0.589 | 0.632 | 0.695 | 0.817 | 0.557 | 1.17 | 0.491 | 0.642 | 0.976 | 0.382 | 0.758 | 0.502 | 0.874 | 0.578 | 0.44 |
| GASRRYGSGVS [NEU1_Y242_W240R] | 0.582 | 0.429 | 0.48 | 0.393 | 0.439 | 0.43 | 0.539 | 0.384 | 0.437 | 0.436 | 0.509 | 0.437 | 0.41 | 0.852 | 0.565 | 0.383 |
| EWKNNYPRLRE [OPA1_Y582] | 0.563 | 0.337 | 0.442 | 0.383 | 0.483 | 0.4 | 0.607 | 0.422 | 0.441 | 0.564 | 0.404 | 0.797 | 0.371 | 0.738 | 0.55 | 0.453 |
| RKLASYRSCLL [DHX37_Y1080] | 0.75 | 0.321 | 0.492 | 0.581 | 0.617 | 0.768 | 0.811 | 0.515 | 0.468 | 0.633 | 0.356 | 0.627 | 0.486 | 1.04 | 1.04 | 0.861 |
| GRQVIYTENER [GPR143_Y231_G229V] | 0.531 | 0.441 | 0.41 | 0.435 | 0.479 | 0.382 | 0.89 | 0.407 | 0.462 | 0.552 | 0.43 | 0.537 | 0.513 | 0.729 | 0.681 | 0.558 |
| VLTSKYRGGGG [HBA1_Y141] | 0.386 | 0.475 | 0.278 | 0.332 | 0.468 | 0.374 | 0.911 | 0.366 | 0.563 | 0.454 | 0.556 | 0.494 | 0.435 | 1.39 | 0.841 | 0.524 |
| VDGSVYELHPS [GCK_Y413_K414E] | 1.56 | 2.35 | 3.42 | 0.597 | 0.676 | 16 | 1.09 | 12.1 | 8.06 | 0.981 | 3.82 | 0.94 | 9.02 | 0.944 | 1.01 | 0.743 |
| SSSAIYDNPDL [DCP1B_Y191_N195D] | 1.29 | 7.52 | 10.9 | 0.519 | 0.651 | 6.58 | 1.07 | 3.81 | 5.17 | 0.914 | 5.29 | 9.33 | 2.7 | 0.667 | 0.621 | 1.94 |

| Sequence | phosphorylation enrichment [1] | phosphorylation enrichment [2] | phosphorylation enrichment [3] | phosphorylation enrichment [4] | phosphorylation enrichment [5] | phosphorylation enrichment [6] | phosphorylation enrichment [7] | phosphorylation enrichment [8] | phosphorylation enrichment [9] | phosphorylation enrichment [10] | phosphorylation enrichment [11] | phosphorylation enrichment [12] | phosphorylation enrichment [13] | SH2 binding enrichment [14] | SH2 binding enrichment [15] | SH2 binding enrichment [16] |
| --- | --- | --- | --- | --- | --- | --- | --- | --- | --- | --- | --- | --- | --- | --- | --- | --- |
| LHNLFYQLEAE [PKP2_Y616_S615F] | 2.35 | 1.35 | 1.9 | 1.02 | 1.07 | 1.66 | 2.87 | 8.59 | 2.2 | 2.4 | 1.6 | 2.03 | 10.4 | 1.02 | 0.909 | 0.725 |
| VAHAVYQAVLS [SMG1_Y549] | 0.899 | 9.09 | 7.85 | 0.656 | 0.591 | 8.18 | 0.935 | 5.92 | 8.28 | 0.666 | 4.22 | 1.14 | 4.58 | 1.11 | 0.828 | 1.02 |
| GIVEDYRPPLY [ACVRL1_Y421_F425L] | 0.727 | 0.382 | 0.482 | 0.387 | 0.608 | 0.399 | 0.918 | 0.455 | 0.382 | 0.675 | 0.393 | 0.59 | 0.412 | 0.859 | 0.783 | 0.429 |
| FADPFYDFEIE [ZC3H18_Y372_YF] | 1.36 | 0.785 | 0.687 | 0.57 | 0.708 | 0.752 | 1.19 | 3.26 | 0.674 | 1.12 | 0.555 | 0.817 | 3.4 | 1.42 | 0.8 | 0.693 |
| TTPAVYARVTK [CTRB2_Y246_A250T] | 0.443 | 0.665 | 0.768 | 0.262 | 0.496 | 0.378 | 0.442 | 2.46 | 2.42 | 0.618 | 0.725 | 1.32 | 3.55 | 0.696 | 0.383 | 2.11 |
| RGKDSYETSKL [SPP1_Y225_Q229K] | 1.26 | 0.983 | 0.678 | 0.613 | 0.788 | 0.699 | 0.986 | 0.695 | 0.669 | 1.07 | 0.62 | 1.49 | 0.571 | 1.03 | 0.581 | 0.388 |
| PVQAPYQKVVA [HBB_Y131_A130P] | 0.744 | 0.543 | 0.691 | 0.436 | 0.429 | 0.381 | 0.94 | 0.539 | 0.687 | 0.687 | 0.691 | 0.732 | 0.563 | 0.8 | 1.3 | 0.561 |
| TLSGTYQYIIA [FOXL2_Y81_I80T] | 1.05 | 5.25 | 2.21 | 5.91 | 3.44 | 5.51 | 1.08 | 1.06 | 3.11 | 1.05 | 7.42 | 1.05 | 1.17 | 0.828 | 1.43 | 1.93 |
| GARGRYIMGGP [TNK1_Y277_V278I] | 0.433 | 0.39 | 0.462 | 0.789 | 0.4 | 0.4 | 0.547 | 0.433 | 0.428 | 0.531 | 0.468 | 0.512 | 0.522 | 0.811 | 0.674 | 0.606 |
| ASGKYYAMKIL [AKT3_Y174] | 0.664 | 0.313 | 0.407 | 0.74 | 0.623 | 0.434 | 0.657 | 0.446 | 0.434 | 0.662 | 0.591 | 0.582 | 0.396 | 0.957 | 0.941 | 1.43 |
| QDLTDYLMKIL [ACTA2_Y190_R185Q] | 1.01 | 0.523 | 0.772 | 0.807 | 0.698 | 0.558 | 1.55 | 0.657 | 0.916 | 1.34 | 0.809 | 1.13 | 0.546 | 1.33 | 1.23 | 0.861 |
| SLMNQYVNKEF [RAB7A_Y28_K32E] | 0.58 | 0.392 | 0.554 | 0.373 | 0.568 | 0.385 | 0.66 | 0.461 | 0.469 | 0.442 | 0.383 | 0.482 | 0.459 | 2.46 | 0.949 | 0.578 |
| ATATDYHTTSH [SLC4A1_Y46] | 0.473 | 0.31 | 0.348 | 0.408 | 0.434 | 0.328 | 0.482 | 0.294 | 0.397 | 0.387 | 0.438 | 0.416 | 0.334 | 0.872 | 0.661 | 0.642 |
| SSQAHYRLSAF [ADAMTS9_Y100] | 0.65 | 0.452 | 0.426 | 0.399 | 0.584 | 0.347 | 0.584 | 0.449 | 0.434 | 0.482 | 0.368 | 0.481 | 0.41 | 0.816 | 0.721 | 0.43 |
| MSRNLYSGDCF [DDR2_Y736_Y740C_YF] | 1.01 | 2.02 | 1.97 | 0.793 | 0.968 | 0.911 | 1 | 1.71 | 2.12 | 0.903 | 5.87 | 0.739 | 1.93 | 0.837 | 0.595 | 0.929 |
| RGRSTCYWPRP [GAGE12J_Y9_Y9C] | 1.06 | 0.688 | 0.6 | 0.704 | 0.981 | 0.582 | 0.756 | 0.599 | 0.736 | 0.655 | 0.732 | 0.623 | 0.816 | 0.642 | 0.714 | 0.658 |
